Consider one molecule from patent publication US10196442B2, “Methods of inhibiting growth of a colon cancer tumor in a subject by administering monoclonal antibodies to G protein-coupled receptor 49 (GPR49)” (Bionomics Inc., priority 2011, dated 2019).

Assay [1] deals with NIH 3T3 fibroblast cells stably transfected with GPR49. The assay can be described thus: Cell Titer Glo proliferation of GPR49-3T3 cells. It counts as cell-based. For orientation: Cellular ATP, detected with luciferase, serves as a proxy for viable cell number.
A further assay addresses T1, GPR49-Fc (Homo sapiens, UniProt O75473).
T1 construct: FLAG (C)
The assay can be described thus: Solution affinity surface plasmon resonance of RSPO-1 on GPR49-Fc. Format: binding. Particulars: solution affinity SPR. Here is the method:
Methods: Binding of RSPO to GPR49 was analyzed using solution affinity surface plasmon resonance (Day E S, et al. Biochemistry. 2005 Feb. 15; 44(6):1919-31). The method utilizes conditions of so-called “mass-transport-limited” binding, in which the initial rate of ligand binding (protein binding to the senor chip) is proportional to the concentration of ligand in solution (BIApplications Handbook (1994) Chapter 6: Concentration measurement, pp 6-1-6-10, Pharmacia Biosensor AB). Under these conditions, binding of the soluble analyte (protein flowing over chip surface) to the immobilized protein on the chip is fast compared to the diffusion of the analyte into the dextran matrix on the chip surface. Therefore, the diffusion properties of the analyte and the concentration of analyte in solution flowing over the chip surface determine the rate at which analyte binds to the chip. In this experiment, the concentration of free RSPO-1 in solution is determined by the initial rate of binding to a CMS Biacore chip containing immobilized GPR49-Fc. Into these RSPO-1 solutions were titrated the competing GPR49-Fc.
Background: In SPR one partner is held on a chip, and binding of the other changes the refractive index at the surface.

T1 sequence (O75473 with tags, fused parts or gaps): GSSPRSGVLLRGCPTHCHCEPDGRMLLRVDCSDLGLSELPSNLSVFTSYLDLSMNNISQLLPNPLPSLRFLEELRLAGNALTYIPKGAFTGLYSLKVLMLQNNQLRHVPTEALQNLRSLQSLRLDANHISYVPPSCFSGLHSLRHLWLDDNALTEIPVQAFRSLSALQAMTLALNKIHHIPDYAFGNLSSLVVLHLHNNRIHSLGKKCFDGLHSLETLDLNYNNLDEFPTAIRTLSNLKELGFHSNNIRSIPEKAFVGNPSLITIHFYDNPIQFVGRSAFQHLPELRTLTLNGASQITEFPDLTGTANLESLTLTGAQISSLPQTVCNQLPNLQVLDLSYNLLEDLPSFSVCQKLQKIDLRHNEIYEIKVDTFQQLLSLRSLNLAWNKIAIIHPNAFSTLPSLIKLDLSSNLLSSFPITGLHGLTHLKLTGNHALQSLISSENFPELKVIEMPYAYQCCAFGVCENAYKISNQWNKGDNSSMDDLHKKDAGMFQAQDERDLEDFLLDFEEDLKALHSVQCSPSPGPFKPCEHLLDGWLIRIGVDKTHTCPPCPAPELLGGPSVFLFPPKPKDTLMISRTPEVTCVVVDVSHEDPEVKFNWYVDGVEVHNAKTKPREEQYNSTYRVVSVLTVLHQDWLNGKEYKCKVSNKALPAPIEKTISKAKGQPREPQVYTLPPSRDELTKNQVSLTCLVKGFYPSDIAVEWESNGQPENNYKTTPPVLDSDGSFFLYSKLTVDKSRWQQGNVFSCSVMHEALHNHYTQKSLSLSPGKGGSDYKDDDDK

B1: R-spondin 1: R-spondin family ligand purchased from R& D systems (protein, UniProt Q2MKA7 21-263, looked up)
R-spondin-1: SRGIKGKRQRRISAEGSQACAKGCELCSEVNGCLKCSPKLFILLERNDIRQVGVCLPSCPPGYFDARNPDMNKCIKCKIEHCEACFSHNFCTKCKEGLYLHKGRCYPACPEGSSAANGTMECSSPAQCEMSEWSPWGPCSKKQQLCGFRRGSEERTRRVLHAPVGDHAACSDTKETRRCTVRRVPCPEGQKRRKGGQGRRENANRNLARKESKEAGAGSRRRKGQQQQQQQGTVGPLTSAGPA
As to B1, the increase in proliferation in assay [1] (GPR49-3T3 clone 28, compared to Stanniocalcin) was determined as 4 fold. Moreover, the “increase in cell proliferation” value in assay [1] (GPR49-3T3 clone 50, 2 days, serum free, compared to Stanniocalcin) is on record as 25-40%. The “binding profile to GPR49-Fc” value in the assay with GPR49-Fc was “bi-phasic binding profile”.
